In the supplement of paper PMC10567573:

B1: SEC22B (parent)
chain: FPKKLAFAYLEDLHSEFDEQHGKK
B2: FBXO3 (parent)
chain: FIDTYSDVGRYIDHYAAIKKAWDD

Variants of: B1
Assay: protein stability index of a GFP-peptide fusion (GPS, HEK-293T) (PSI 1-6); higher = more stable
Details: c terminus: a fixed tail appended
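Further: lentivirally expressed fusions sorted by FACS into six bins by GFP to DsRed ratio, PSI derived from sequencing read proportions per bin multiplied by bin number.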

Protein stability index: each site, then its substitutions
K24: M 2.36 | L 2.12 | V 2.49 | G 2.11 | F 2.21 | Q 2.9 | S 2.8 | T 2.5 | D 2.68 | P 2.29 | Y 2.49 | R 2.9 | N 2.32 | C 2.23 | E 2.83 | H 2.59 | A 2.72 | W 2.54 | I 1.89
K23: V 2.67 | W 2.38 | T 1.81 | Y 2.2

Variants of: B2
Assay: as above
Details: c terminus: a fixed tail appended

Protein stability index, by site and new letter:
A16: R 1.69 | D 1.6 | I 1.71 | S 1.93 | Y 2.71 | V 2.6 | H 2.12 | T 1.42 | W 1.84 | K 2.04 | L 2.01 | E 1.89 | Q 1.81 | C 2.08 | N 1.12 | G 2.44 | M 1.25 | P 2.07 | F 1.69
Y15: D 2.08 | L 1.53 | R 2.61 | C 2.24 | T 1.82 | K 1.93 | M 1.55 | Q 2.96 | G 1.87 | P 1.57 | E 1.94 | H 2.32 | W 2.08 | N 1.97 | I 2.15 | A 1.93 | V 1.99 | F 2.14 | S 1.48
Y11: V 1.93 | S 2.2 | G 1.66 | F 1.89 | P 2.24 | H 1.78 | Q 2.06 | W 2.39 | I 2 | E 1.38 | K 2.06 | C 1.66 | R 2.37 | T 1.59 | M 1.85 | D 1.78 | L 1.42 | A 1.82 | N 2.25
A17: H 2.59 | D 2.23 | E 1.72 | K 1.92 | G 1.84 | I 1.6 | F 3.36 | C 1.92
F1: Q 3.41 | D 3.74 | T 3.74 | A 3.39 | L 3.22 | N 3.57 | H 3.58 | P 3.62 | Y 2.09 | M 2.79 | W 2.58 | V 3.28 | C 2.87 | R 3.09 | S 3.64 | K 2.47 | G 3.05 | E 3.21 | I 2.56
V8: W 1.62 | L 1.92 | H 1.82 | I 2.62 | G 2.07 | A 1.79 | Q 1.79 | C 1.9 | P 2.72 | Y 1.81 | E 2.32 | M 2.03 | S 1.72 | N 2.2 | T 1.65 | D 3.07 | K 2.02 | F 1.79 | R 1.59
G9: T 1.83 | C 1.65 | W 1.83 | A 1.62 | V 1.77 | H 1.9 | L 2.22 | K 1.85 | Y 2 | S 1.91 | Q 2.03 | N 2.05 | D 1.57 | M 3.14 | I 1.75 | F 1.9 | E 2.15 | P 1.85 | R 1.7
T4: E 2.67 | S 1.89 | M 1.89 | C 1.55 | Q 1.59 | P 1.86 | L 1.89 | V 1.91 | K 1.83 | W 1.37 | I 1.94 | F 2.28 | D 2.04 | R 2.12 | Y 1.82 | G 3.57 | A 2.41 | N 2.02 | H 1.88
D3: S 2.06 | Q 1.82 | G 3.01 | Y 2.46 | P 2.01 | H 1.81 | R 1.91 | T 1.62 | M 2.56 | W 1.92 | L 2.3 | N 1.74 | F 1.38 | A 2 | E 2.14 | V 2.63 | K 1.91 | C 1.57 | I 2.33
I2: H 2.47 | P 3 | E 3.59 | G 3.01 | S 3.14 | R 3.03 | V 2.1 | M 2.41 | W 2.45 | A 2.45 | L 2.39 | N 3.21 | Y 2.5 | K 3.03 | Q 2.52 | D 3.65 | C 2.4 | T 2.32 | F 2.63
S6: T 1.65 | F 1.6 | Y 1.54 | G 1.94 | N 1.83 | V 2.35 | D 1.69 | K 1.65 | H 2.06 | M 1.77 | P 2.03 | Q 1.89 | C 2.12 | E 1.62 | R 3.1 | A 1.97 | W 3.09 | L 2.17 | I 2.14
R10: P 1.78 | H 1.56 | L 1.85 | S 2.1 | C 1.9 | T 1.83 | Y 1.75 | V 2.86 | I 1.48 | N 1.88 | E 2.56 | D 2.32 | A 1.6 | W 1.46 | M 1.75 | K 1.82 | G 1.92 | Q 2.58 | F 2.23
D13: E 1.32 | H 2.06 | A 1.98 | Q 2.7 | W 2.51 | R 1.3 | N 2.34 | S 1.84 | L 2.24 | C 1.77 | M 2.07 | T 1.5 | K 2.1 | Y 2.58 | G 2.6 | V 2.2 | I 2.88 | P 1.83
Y5: N 2.21 | K 2.44 | S 2.5 | T 2.23 | G 2.21 | W 2.27 | E 2.8 | M 2.1 | R 2.45 | A 2.25 | H 2.13 | V 2.47 | L 1.96 | D 2.9 | Q 2.2 | C 2.84 | P 3.12 | F 2.19 | I 2.05
I12: Y 1.98 | V 2 | E 1.99 | R 2.27 | T 1.93 | P 2.05 | F 2.09 | D 1.82 | W 1.41 | M 1.72 | H 1.91 | L 1.97 | G 2.19 | N 1.78 | C 2.21 | A 2.21 | Q 2.3 | K 1.76 | S 1.32
H14: P 2.38 | M 1.75 | D 2.7 | G 2.11 | E 1.84 | T 1.71 | L 1.66 | V 2.27 | Y 1.82 | W 1.87 | I 1.71 | N 1.58 | F 2.19 | C 2.31 | Q 1.63 | K 1.87 | S 2.49 | A 2.01 | R 2.38
D7: I 1.75 | L 1.93 | V 2.43 | W 2.67 | G 2.33 | K 2.19 | R 2.14 | M 2.64 | F 2.79 | T 1.68 | Q 1.53 | C 1.86 | N 1.77 | Y 2.01 | S 2.32 | H 1.63 | E 1.48 | A 1.21 | P 2.16
